Measured values taken from PMC5850324, “Interactions between the Hepatitis C Virus Nonstructural 2 Protein and Host Adaptor Proteins 1 and 4 Orchestrate Virus Release” (mBio, 2018).

B1: GLuc2-NS2 (hepatitis C virus nonstructural 2 protein, wild type) [hepatitis C virus (J6/JFH genome)] / GLuc1-tagged μ subunit of the AP-4 complex [not stated] (parent complex)
chain 1: YDASVHGQIGAALLVLITLFTLTPGYKTLLSRFLWWLCYLLTLAEAMVQEWAPPMQVRGGRDGIIWAVAIFCPGVVFDITKWLLAVLGPAYLLKGALTRVPYFVRAHALLRMCTMVRHLAGGRYVQMVLLALGRWTGTYIYDHLTPMSDWAANGLRDLAVAVEPIIFSPMEKKVIVWGAETAACGDILHGLPVSARLGREVLLGPADGYTSKGWSLL
chain 2: MISQFFILSSKGDPLIYKDFRGDSGGRDVAELFYRKLTGLPGDESPVVMHHHGRHFIHIRHSGLYLVVTTSENVSPFSLLELLSRLATLLGDYCGSLGEGTISRNVALVYELLDEVLDYGYVQTTSTEMLRNFIQTEAVVSKPFSLFDLSSVGLFGAETQQSKVAPSSAASRPVLSSRSDQSQKNEVFLDVVERLSVLIASNGSLLKVDVQGEIRLKSFLPSGSEMRIGLTEEFCVGKSELRGYGPGIRVDEVSFHSSVNLDEFESHRILRLQPPQGELTVMRYQLSDDLPSPLPFRLFPSVQWDRGSGRLQVYLKLRCDLLSKSQALNVRLHLPLPRGVVSLSQELSSPEQKAELAEGALRWDLPRVQGGSQLSGLFQMDVPGPPGPPSHGLSTSASPLGLGPASLSFELPRHTCSGLQVRFLRLAFRPCGNANPHKWVRHLSHSDAYVIRI

Variants of: B1
Experiment: PCA (protein-fragment complementation assay); parent: 1; read off a plot

Variant	ratio to parent
chain 1 E200A	~1
chain 1 L217A	~0.52
chain 1 L203A	~0.62
chain 1 L216A	~0.56
chain 1 L202A	~0.57
chain 1 D207A	~0.6
